Data reported in article PMC7318136.

How the values were obtained:
Test in all cases: NMR
Details in all cases: 300 K; not stated; 20 mM sodium phosphate; phosphoric acid (20 %) added for lower pH, NaOH (1 M) for higher pH; samples dialysed overnight; folded isolated PsbO-β, 9-14 mg/mL, free of PSII partners
[1] = target: Asp24 (UniProt position 50, …)
[2] = target: Asp23 (UniProt position 49, …)
[3] = target: Glu244 (UniProt position 270, FYASIEPA---)
[4] = target: Asp33 (UniProt position 59, …)
[5] = target: Glu74 (UniProt position 100, …)
[6] = target: Asp99 (UniProt position 125, …)
[7] = target: Glu64 (UniProt position 90, …)
[8] = target: Glu98 (UniProt position 124, …)
[9] = target: Glu54 (UniProt position 80, …)
[10] = target: Asp90 (UniProt position 116, …)
[11] = target: Glu216 (UniProt position 242, …)
[12] = target: Glu145 (UniProt position 171, …)
[13] = target: Glu232 (UniProt position 258, …)
[14] = target: Glu218 (UniProt position 244, …)
[15] = target: Asp79 (UniProt position 105, …)
[16] = target: Asp141 (UniProt position 167, …)
[17] = target: Glu84 (UniProt position 110, …)
[18] = target: Glu210 (UniProt position 236, …)
[19] = target: Asp205 (UniProt position 231, …)
[20] = target: Asp102 (UniProt position 128, …)
[21] = target: Glu114 (UniProt position 140, …)

B1: PsbO-β (β-barrel construct of photosystem II manganese-stabilizing protein PsbO) (Thermosynechococcus elongatus; deletion of 1-15; deletion of 55-63 (replaced … (protein)
chain: MNHKCPTLDDTARGAYPIDSSQTYRIARLCLQPTTFLVKENGEFVPTKLVTRETTSLDQIQGELKVNSDGSLTFVEEDGIDFQPVTVQMAGGERIPLLFTVKNLVASTQPNVTSITTSTDFKGEFNVNGTKGQISLNVAKVDGRTGEIAGTFESEQLSNGHEVKIQGVFYASIEPA
B1 was tested, and the pKa [1] was 3.06±0.03, the pKa [2] was 3.41±0.05 and the pKa [3] was 4.97±0.08. The pKa [4] was 3.47±0.05, the pKa [5] was 3.37±0.05 and the pKa [6] was less than 5. For the same protein, the pKa [7] was 4.17±0.04, the pKa [8] was 4.99±0.04 and the pKa [9] was 4.47±0.06. The pKa [10] was 1.56±0.14, the pKa [11] was 3.91±0.10 and the pKa [12] was 4.52±0.04. The pKa [13] was 4.20±0.10, the pKa [14] was 5.13±0.07 and the pKa [15] was less than 2.5. It also gave a pKa [16] of 4.89±0.03, a pKa [17] of 4.64±0.07 and a pKa [18] of 2.66±0.12. The pKa [19] was 3.45±0.09, the pKa [20] was greater than 7 and the pKa [21] was 3.81±0.08.
